Experimental findings from paper PMC8376927, “14-3-3 proteins inactivate DAPK2 by promoting its dimerization and protecting key regulatory phosphosites” (Communications Biology, 2021) are described below.

Numbering of substitutions follows the chain as printed. Non-standard residues stand in square brackets, D forms with d. No end group written: not given here. *: point of attachment. 5FAM = O=C1OC2(c3ccc(O)cc3Oc3cc(O)ccc32)c2ccc(C(=O)*)cc21; pT = C[C@@H](OP(=O)(O)O)[C@H](N)C(=O)O

B1: DAPK2_RNTD, full-length human DAPK2 mutant with the C terminus S367STS370 changed to R367NTD370, autophosphorylated (enzyme)
chain: MFQASMRSPNMEPFKQQKVEDFYDIGEELGSGQFAIVKKCREKSTGLEYAAKFIKKRQSRASRRGVSREEIEREVSILRQVLHHNVITLHDVYENRTDVVLILELVSGGELFDFLAQKESLSEEEATSFIKQILDGVNYLHTKKIAHFDLKPENIMLLDKNIPIPHIKLIDFGLAHEIEDGVEFKNIFGTPEFVAPEIVNYEPLGLEADMWSIGVITYILLSGASPFLGDTKQETLANITAVSYDFDEEFFSQTSELAKDFIRKLLVKETRKRLTIQEALRHPWITPVDNQQAMVRRESVVNLENFRKQYVRRRWKLSFSIVSLCNHLTRSLMKKVHLRPDEDLRNCESDTEEDIARRKALHPRRRRNTD
modifications: phosphothreonine at 369 (stoichiometrically autophosphorylated); autophosphorylated Ser318 (the peptide with Ser318 carried one or two phosphoresidues)
notes: Death-associated protein kinase 2 (DAPK2, DRP-1), human, full length; Cloned into modified pRSFDuet-1 (BamHI, NotI)
B2: DAPK2_RNTD S318A (enzyme)
chain: B1 chain with S318A
notes: Death-associated protein kinase 2 (DAPK2), human, full length, made from DAPK2_RNTD
B3: DAPK2 WT, full-length human DAPK2, autophosphorylated (enzyme)
chain: B1 chain with R367S, N368S, D370S
modifications: autophosphorylated at Ser318 and at two additional sites, at least, within the C-terminal 14-3-3-binding motif
notes: Death-associated protein kinase 2 (DAPK2, DRP-1), human, full length
B4: Human 14-3-3γ WT (natural protein, UniProt P61981 1-247, looked up)
chain: MVDREQLVQKARLAEQAERYDDMAAAMKNVTELNEPLSNEERNLLSVAYKNVVGARRSSWRVISSIEQKTSADGNEKKIEMVRAYREKIEKELEAVCQDVLSLLDNYLIKNCSETQYESKVFYLKMKGDYYRYLAEVATGEKRATVVESSEKAYSEAHEISKEHMQPTHPIRLGLALNYSVFYYEIQNAPEQACHLAKTAFDDAIAELDTLNEDSYKDSTLIMQLLRDNLTLWTSDQQDDDGGEGNN
notes: 14-3-3 protein gamma, human, wild type; it speaks of the protein as a dimer
B5: FAM-ctDAPK2-pT369 peptide (FAM-RRRSSpTS) (peptide)
peptide: 5FAM-RRRSS[pT]S
notes: source: synthetic peptide (Pepscan Presto BV)
B6: Human 14-3-3γΔC (residues 1-235 lacking the C-terminal 13-residue-long flexible tail) (domain or fragment, UniProt P61981 1-235, looked up)
chain: MVDREQLVQKARLAEQAERYDDMAAAMKNVTELNEPLSNEERNLLSVAYKNVVGARRSSWRVISSIEQKTSADGNEKKIEMVRAYREKIEKELEAVCQDVLSLLDNYLIKNCSETQYESKVFYLKMKGDYYRYLAEVATGEKRATVVESSEKAYSEAHEISKEHMQPTHPIRLGLALNYSVFYYEIQNAPEQACHLAKTAFDDAIAELDTLNEDSYKDSTLIMQLLRDNLTLWTS
notes: 14-3-3 protein gamma, human, residues 1-235 (C-terminally truncated)

For data set [1], the target named is T1, dansyl-labeled rat calmodulin (DANS-CaM) (rat, UniProt P0DP29 1-149, dansyl label (dansyl chloride; site not stated)).
T1 construct: calmodulin, rat; Measured with 1 mM CaCl2; also called DANS-Ca^2+/CaM; dansyl-Ca^2+/CaM
Kind of data set: time-resolved fluorescence intensity and anisotropy decay; 25 μM DANS-CaM, 30 μM DAPK2, with or without 100 μM 14-3-3γ; 23 °C; 20 mM HEPES-NaOH pH 7.5, 150 mM NaCl, 1 mM CaCl2, 1 mM TCEP. The settings on record: both partners purified.

Data set [2] deals with T2, rat calmodulin protein (Ca2+/CaM) (rat, UniProt P0DP29 1-149).
T2 construct: calmodulin, rat; also called rat CaM
Kind of data set: AUC; sedimentation velocity, 50 μM mixture of DAPK2_RNTD with Ca2+/CaM (1:1 molar ratio) compared with 50 μM DAPK2_RNTD alone; 20 °C. The settings on record: both partners purified.

Data set [3] deals with B1. Kind of data set: AUC; sedimentation velocity, 10-molar excess of 14-3-3γ over DAPK2_RNTD; 20 °C. The settings on record: both partners purified.
For data set [4], the target named is B1. Kind of data set: AUC; sedimentation velocity, mixtures of 6 μM DAPK2_RNTD and 0.6-60 μM 14-3-3γ; 20 °C; 50 mM HEPES-NaOH pH 7.5, 150 mM NaCl, 1 mM TCEP. The settings on record: both partners purified.
Data set [5] has as its target B1. Kind of data set: AUC; sedimentation velocity, 10-molar excess of DAPK2_RNTD over 14-3-3γ; 20 °C. The settings on record: both partners purified.
Data set [6] has as its target B6. Put plainly: fluorescence polarisation; 14-3-3γ (160 µM and binary dilution series) incubated 1 h with 50 nM FAM-labelled peptide; 20 mM HEPES-NaOH pH 7.4, 150 mM NaCl, 0.1% Tween 20, 0.1% BSA; one-site-binding model; apparent KD. As to conditions: both partners purified.
Data set [7] concerns the molecule itself. Put plainly: crystal structure; binary complex 14-3-3γΔC:ctDAPK2-pT369 mixed 1:1.2; hanging drop, 290 K; space group R3; 2.7 Å.

Regarding B1, the binding result in data set [1] and in data set [2] was “binds” in each case.
With B2, the binding result in data set [1] was “binds”.
For B3, the binding result in data set [1] was “binds”.
Regarding B4, the “stoichiometry N” value was 2 14-3-3γ per DAPK2 (printed 2:1) in data set [3] and 1 14-3-3γ per DAPK2 (printed 2:2) in data set [5]. Besides, in data set [4], the Kd was under 100 nM.
With B5, in data set [6], the Kd came out at 161 ± 7 nM.
B6: the binding result in data set [7] was “binds”.
